Source: patent publication US20090227489A1, “STAT3 Agonists and Antagonists and Therapeutic Uses Thereof” (Johns Hopkins University, priority 2000, published 2009)

Tests used:
[1] = system: U266 cells; settings: cited from earlier work
[2] = system: VEGF; experiment: VEGF expression and Stat3 activity in v-Src-transformed NIH3T3 fibroblasts; format: cell-based
Text: FIG. 10A-B. Transfection of NIH3T3-Src cells with either: A. Stat3β expression vector; or B. Stat3 anti-sense oligos, results in reduced levels of VEGF protein as shown by Western blot. Src tyrosine kinase-mediated VEGF upregulation requires Stat3. Src tyrosine activity is known to upregulate VEGF expression. In Src-transformed NIH3T3 cells, VEGF expression is high.
Src tyrosine kinase activity upregulates VEGF expression. […] NIH3T3 fibroblasts transformed by v-Src were transiently transfected with a dominant-negative variant of Stat3, Stat3β. The transfection efficiency was approximately 40% based on the number of cells that were fluorescent due to the presence of GFP. […] Forty-eight hours later, VEGF expression in v-Src-NIH3T3 fibroblasts with or without Stat3β expression was compared at both RNA and protein levels. […] Anti-sense oligonucleotides against Stat3 as well as control oligonucleotides were also transfected into v-Src-NIH3T3 cells.

[3] = system: TRAIL; experiment: RNase protection assay with multi-template probes for regulators of apoptosis; format: cell-based, murine; settings: B16 cells, thirty hours after transfection
Protocol: FIG. 4. Stat3β overexpression in B16 cells results in induction of TRAIL mRNA expression. Ten μg of total cellular RNAs isolated from B16 (lanes 1 and 4), and B16 transfected with either pIRES-EGFP (lanes 2 and 5) or pIRES-Stat3β (lanes 3 and 6) were hybridized with each multiple probe before digestion with RNase. Separation of protected fragments was achieved by gel electrophoresis. Fragment assignment was determined by migration relative to internal standards. Induction of TRAIL RNA was confirmed by two additional RPA analyses.
RNA isolation and RNase protection assay. Total RNA was isolated from 5.0×10^6 cells by TRIzol reagent (Gibco BRL, Grand Island, N.Y.). RNase protection assays (RPA) were carried out using the PharMingen Riboquant mAPO-3 (TRAIL, FasL, CD95, and other death receptor associated genes) and mAPO-2 (Bcl-2 family members) multi-probe templates according to the manufacturer's protocol (PharMingen, San Diego, Calif.). Briefly, the multi-probe template was synthesized by in vitro transcription with incorporation of [^32P]-α UTP and purified on a G50 Sephadex column (5-Prime to 3-Prime, Boulder, Colo.). Specific activity was quantitated in a Beckman LS 6500 scintillation counter (Beckman, Schaumburg, Ill.). […] Protected RNA fragments were separated on a 5% polyacrylamide denaturing gel and quantified with Image Quant software (Molecular Dynamics, Sunnyvale, Calif.). […]

[4] = system: VEGF promoter; experiment: VEGF promoter luciferase reporter in B16 and SCK tumor cells; format: cell-based; settings: B16 and SCK murine tumor cells, co-transfection
Text: FIG. 12A-B. Blocking Stat3 signaling in tumor cells inhibits VEGF promoter activity. Both B16 (A) and SCK (B) murine tumor cells were transfected with constructs containing the luciferase cDNA in the absence (pluc) or presence of the VEGF promoter (VEGF).
A plasmid construct containing the luciferase cDNA in the absence of the VEGF promoter was also transfected into 3T3 fibroblasts. Both of B16 and SCK tumor cells harbor constitutively activated Stat3. In the absence of Stat3β, VEGF promoter activity was readily detectable in both tumor cells as indicated by the high expression levels of luciferase protein. […] The inhibitory effect of Stat3β on the transcriptional activity of the VEGF promoter was also observed in the tumor cells transfected with Stat3 anti-sense oligonucleotides (FIG. 12A-B). It was also shown that blocking Stat3 signaling in tumor cells inhibits the expression of the endogeneous VEGF gene. B16 tumor cells were transiently transfected with Stat3β and the expression of endogeneous VEGF gene was determined at the RNA and protein levels.

[5] = system: B16 tumors; experiment: Stat3β gene therapy of established B16 tumors in mice; format: in vivo; settings: for tumor growth: ten to fifteen percent of tumor cells transfected in vivo
Protocol: Mice. Six- to eight-week old female C57/B6 mice were obtained from the National Cancer Institute (Frederick, Md.). Cohorts of 3-5 mice per group were used for these experiments. To induce tumor, mice were shaved on the left flank and injected s.c. with 5×10^5 of B16 cells in 100 μl of PBS. Gene therapy with Stat3β of established B16 tumors was described previously [Niu, 1999 #72].
Antibody staining of iNOS in B16 tumors. 3 μm paraffin sections were deparaffinized and endogenous peroxidase was blocked with 3% aqueous hydrogen peroxide. To minimize non-specific binding, the sections were incubated for 20 min in normal goat serum in PBS, followed by overnight incubation at 4° C. with rabbit anti-iNOS polyclonal antibody (Transduction Laboratories). After washing with PBS, sections were incubated for 2 min with diaminobenzidine tetrahydrochloride, rinsed with tap water and counterstained with modified Mayer's hematoxylin. Sections were dehydrated, cleared and mounted. Peritoneal macrophages and neutrophils.
Tissue sections from control vector-treated and Stat3β-treated tumors were stained with H&E and anti-iNOS antibodies.

B1: Stat3β: dominant-negative Stat3 variant, truncated form lacking the transactivation domain; delivered by the pIRES-Stat3β expression vector (protein)
chain: AQWNQLQQLDTRYLEQLHQLYSDSFPMELRQFLAPWIESQDWAYAASKESHATLVFHNLLGEIDQQYSRFLQESNVLYQHNLRRIKQFLQSRYLEKPMEIARIVARCLWEESRLLQTAATAAQQGGQANHPTAAVVTEKQQMLEQHLQDVRKRVQDLEQKMKVVENLQDDFDFNYKTLKSQGDMQDLNGNNQSVTRQKMQQLEQMLTALDQMRRSIVSELAGLLSAMEYVQKTLTDEELADWKRRQQIACIGGPPNICLDRLENWITSLAESQLQTRQQIKKLEELQQKVSYKGDPIVQHRPMLEERIVELFRNLMKSAFVVERQPCMPMHPDRPLVIKTGVQFTTKVRLLVKFPELNYQLKIKVCIDKDSGDVAALRGSRKFNILGTNTKVMNMEESNNGSLSAEFKHLTLREQRCGNGGRANCDASLIVTEELHLITFETEVYHQGLKIDLETHSLPVVVISNICQMPNAWASILWYNMLTNNPKNVNFFTKPPIGTWDQVAEVLSWQFSSTTKRGLSIEQLTTLAEKLLGPGVNYSGCQITWAKFCKENMAGKGFSFWVWLDNIIDLVKKYILALWNEGYIMGFISKERERAILSTKPPGTFLLRFSESSKEGGVTFTWVEKDISGKTQIQSVEPYTKQQLNNMSFAEIIMGYKIMDATNILVSPLVYLYPDIPKEEAFGKYCRPESQEHPEADPGAAPYLKTKFICVTFIDAVWK
In the case of B1, the “expression of the Bcl-XL gene” value [1] is listed as “down-regulated expression of the Stat3-regulated Bcl-XL gene”, the “sensitization to Fas-mediated apoptosis” value ([1]; in vitro) is listed as “dramatic sensitization of cells to Fas-mediated apoptosis” and the “Stat3 DNA binding activity (EMSA)” value ([2]; v-Src NIH3T3) is listed as “loss of Stat3 DNA binding activity”. For the same molecule, the VEGF expression ([2]; v-Src NIH3T3, forty-eight hours) was “inhibits VEGF”, the “TRAIL RNA expression” value [3] was “induction of TRAIL RNA expression” and the “transcriptional activity of the VEGF promoter (luciferase)” value [4] was “greatly inhibited”. The “apoptosis of tumor cells in vivo” value ([5]; B16 tumors) was “massive apoptosis of B16 tumor cells”, the tumor growth ([5]; B16 tumors) was “complete regression of tumors” and the tumor growth ([5]; B16 tumors, listed as Stat30) was “inhibition of tumor growth and tumor regression”. For the same molecule, the “infiltration of inflammatory cells (neutrophils, macrophages, T cells)” value ([5]; H&E staining, vs control vector-treated tumors) was “dramatic increase in number of inflammatory cells” and the “iNOS expression in tumor-infiltrating macrophages” value ([5]; anti-iNOS antibody staining) was “induction of iNOS gene expression in the tumor-infiltrating macrophages”.
